The results in this text go back to patent publication US20240100176A1 (Eli Lilly, published 2024).

Common to all, as to assay: capture ELISA: Ab1 on anti-human IgG Fc, His-tagged receptor at 1 µg/mL, anti-His HRP
In experiment [1] the target is T1, hexahistidine tagged human IL-4Rα ECD E94R (human, UniProt P24394 26-232).
T1 construct: not shown: hexahistidine tag
The source says:
(§1) Example 2d. […] Briefly, thirty surface amino acid residue substitutions were introduced individually into hexahistidine tagged human IL-4Rα extra cellular domain (ECD) as follows: K2D, E6R, K22D, P26R, T31R, F41A, L42G, L43G, E45R, E52R, G56R, D66R, A71R, Q82G, K87D, E94R, H107A, D108R, P124R, D125R, D143R, R148D, L155R, R160D, S164R, S168R, Q181R, P192R, K195D, or H197G. Each mutant protein having a single amino acid residue substitution as described above was transiently expressed in CHO cells and purified using standard immobilized metal affinity chromatography techniques. […] The plates were then washed 3 times with PBST and the exemplified human IL-4Rα antibody was added to the wells at a final concentration of 1 μg/mL in PBS-casein and incubated for 1 hour at room temperature. The plates were washed 3 times with PBST, the IL-4Rα mutant proteins were serially diluted 5-fold from 1 μg/mL for 3 points. in PBS-casein and added to the plate at 50 μL/well and incubated for 1 hour at room temperature. The plates were washed 3 times with PBST and a 1000-fold dilution of anti-histidine tag antibody HRP conjugate (R&D Systems, Cat. #MAB050H) in PBS-casein was added and incubated for 45 minutes at room temperature. The plates were washed 3 times, TMB substrate (Pierce, Cat. #34028) was added per manufacturer instructions, the reaction was quenched with H₂SO₄, and absorbance was read at 450 nm on an ELISA plate reader.

Experiment [2] concerns the target T2, hexahistidine tagged human IL-4Rα ECD E6R (human, UniProt P24394 26-232).
T2 construct: not shown: hexahistidine tag
Source text: as §1

For experiment [3], the target named is T3, hexahistidine tagged human IL-4Rα ECD L43G (human, UniProt P24394 26-232).
T3 construct: not shown: hexahistidine tag
Source text: as §1

In experiment [4] the target is T4, hexahistidine tagged human IL-4Rα ECD K22D (human, UniProt P24394 26-232).
T4 construct: not shown: hexahistidine tag
Source text: as §1

The target of experiment [5] is T5, hexahistidine tagged human IL-4Rα ECD Q82G (human, UniProt P24394 26-232).
T5 construct: not shown: hexahistidine tag
Source text: as §1

The target in experiment [6] is T6, hexahistidine tagged human IL-4Rα ECD H107A (human, UniProt P24394 26-232).
T6 construct: not shown: hexahistidine tag
Source text: as §1

The target in experiment [7] is T7, hexahistidine tagged human IL-4Rα ECD P26R (human, UniProt P24394 26-232).
T7 construct: not shown: hexahistidine tag
Source text: as §1

Experiment [8] has as its target T8, hexahistidine tagged human IL-4Rα ECD D143R (human, UniProt P24394 26-232).
T8 construct: not shown: hexahistidine tag
Source text: as §1

T6 sequence (P24394 26-232 H132A): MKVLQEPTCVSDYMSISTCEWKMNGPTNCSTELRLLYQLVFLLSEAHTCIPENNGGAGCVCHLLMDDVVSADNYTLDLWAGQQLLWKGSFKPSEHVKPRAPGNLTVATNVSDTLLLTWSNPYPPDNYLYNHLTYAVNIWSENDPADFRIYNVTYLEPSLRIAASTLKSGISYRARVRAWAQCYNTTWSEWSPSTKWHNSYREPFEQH
T2 sequence (P24394 other isoform, or with tags, fused parts or gaps): as the sequence (P24394 26-232 H132A) above, with E6R, A107H counted along it
T4 sequence (P24394 26-232 K47D): as the sequence (P24394 26-232 H132A) above, with K22D, A107H counted along it
T3 sequence (P24394 26-232 L68G): as the sequence (P24394 26-232 H132A) above, with L43G, A107H counted along it
T1 sequence (P24394 26-232 E119R): as the sequence (P24394 26-232 H132A) above, with E94R, A107H counted along it
T8 sequence (P24394 26-232 D168R): as the sequence (P24394 26-232 H132A) above, with A107H, D143R counted along it
T5 sequence (P24394 26-232 Q107G): as the sequence (P24394 26-232 H132A) above, with Q82G, A107H counted along it

B1: anti-human IL-4Rα antibody Ab1 (antibody, human IgG4 S228P, kappa)
heavy: QVQLVESGGGLVQPGGSLRLSCVASGFTFSHSSMNWVRQAPGKGLEWVSYISRATGAVYYADSVKGRFTISRDNAKNSLYLQMNSLRDEDTAVYYCAREPVFDYWGQGTLVTVSSASTKGPCVFPLAPCSRSTSESTAALGCLVKDYFPEPVTVSWNSGALTSGVHTFPAVLQSSGLYSLSSVVTVPSSSLGTKTYTCNVDHKPSNTKVDKRVESKYGPPCPPCPAPEFLGGPSVFLFPPKPKDTLMISRTPEVTCVVVDVSQEDPEVKFNWYVDGVEVHNAKTKPREEQFNSTYRVVSVLTVLHQDWLNGKEYKCKVSNKGLPSSIEKTISKAKGQPREPQVYTLPPSREEMTKNQVSLTCLVKGFYPSDICVEWESNGQPENNYKTTPPVLDSDGSFFLYSRLTVDKSRWQQGNVFSCSVMHEALHNHYTQKSLSLSLG
light: DIQMTQSPSAMSASVGDRVTITCRASQDISNYLAWFQQKPGKVPTRLIYAASSLQSGVPSRFSGSGSGTEFTLTISSLQPEDFATYYCLQWSSYPRTFGQGTKVEIKRTVAAPSVFIFPPSDEQLKSGTASVVCLLNNFYPREAKVQWKVDNALQSGNSQESVTEQDSKDSTYSLSSTLTLSKADYEKHKVYACEVTHQGLSSPVTKSFNRGEC
notes: human kappa light chain; also called anti-human IL-4Rα Ab1; unconjugated Ab1
In the case of B1, the “ELISA (OD450)” value in experiment [1] was determined as 1.73 OD450; in experiment [2] it was 2.25 OD450; in experiment [3] it was 1.7 OD450; in experiment [4] it was 1.67 OD450; in experiment [5], 1.74 OD450; in experiment [6] it was 1.89 OD450. Also, the “ELISA (OD450)” value in experiment [7] came out at 1.66 OD450; in experiment [8], 1.75 OD450.
